# Test results from the RNAGym collection of RNA variant scans (doi:10.1073/pnas.2313332121).
# Variants at the floor of the assay were thinned out.
# B1: TPR 5TU (parent)
# chain: GGAUCUUCUCGAUCUAACAAAAAAGACAAAUCUGCCACAAAGCUUGAGAGCAUCUUCGGAUGCAGAGGCGGCAGCCUUCGGUGGCGCGAUAGCGCCAACGUUCUCAACUAUGACACGCAAAACGCGUGCUCCGUUGAAUGGAGUUUAUCAUG
# Variants of: B1
# Experiment: polymerase ribozyme fitness, log enrichment relative to wild type (log ratio); higher = more active; in vitro selection for triplet polymerase activity
# Summary of the method: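 A heterodimeric triplet polymerase ribozyme had each of its subunits mutagenized by PCR into a library, which was transcribed. One round of in vitro selection, done in triplicate, annealed each library with a biotinylated primer, its partner subunit and triplets, then incubated it frozen at −7 °C before gel excision of extended constructs, streptavidin-bead capture and RT-PCR. Fitness is the logarithm of genotype enrichment relative to wild-type enrichment, based on Illumina sequencing of inputs and outputs and inverse-variance-weighted replicate averages. A base-2 logarithm is used, and genotypes were kept only with ≥10 input reads and ≥1 read per output.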
row,Variant,polymerase ribozyme fitness (log ratio)
1,GGAUCUUCUCGAUCUAACAAAAAAGACAAAUCUGCCACAAAGCUUGAGAGCAACUUCGGAUGCAGAGGCGGCAGCCUUCGGUGGCGCGAUAGCGCCAACGUUCUCAACUAUGACACGCAAAACGCGUGCUCCGUUGAAUGGAGUUUAUCCUG [U53A A150C],-3.56
2,GGAUCUUCUCGAUCUAACAAAAAAGACAAAUCUGCCACAAAGCUUGAGAGCAACUUCGGAUGCAGAGGCGGCAGCCUUCGGUGGCGCGAUAGCGCCAACGUUCUCAACUAUGACACGCAAAGCGCGUGCUCCGAUGAAUGGAGUUUAUCAUG [U53A A122G U134A],-3.02
3,GGAUCUUCUCGAUCUAACAAAAAAGACAAAUCUGCCACAAAGCUUGAGAGCAACUUCGGAUGCAGAGGCGGCAGCCUUCGGUGGCGCGAUAGCGCCAACGUUCUCAACUCUGACACGCAAAACGCGUGCUCCGUUGAAUGGAGUUUAUCAUG [U53A A110C],≤ -4.2
4,GGAUCUUCUCGAUCUAACAAAAAAGACAAAUCUGCCACAAAGCUUGAGAGCAACUUCGGAUGCAGAGGCGGCAGCGUUCGGUGGCGCGAUAGCGCCAACGUUCUCAACUAUGACACGCAAAACGCGUGCUCCGUUGAAUGGAGUUUAUCAUG [U53A C76G],≤ -4.2
5,GGAUCUUCUCGAUCUAACAAAAAAGACAAAUCUGCCACAAAGCUUGAGAGCAACUUCGGAUGCAGAGGCGGCAGCAUUCGGUGGCGCGAUAGCGCCAACGUUCUCAACUAUGACACGCAAAACGCGUGCUCCGUUGAAUGGAGUUUAUCAUG [U53A C76A],-2.19
6,GGAUCUUCUCGAUCUAACAAAAAAGACAAAUCUGCCACAAAGCUUGAGAGCAACUUCGGAUGCAGAGGCGGUAGCCUUCGGUGGCGCGAUAGCGCCGACGUUCUCAACUAUGACACGCAAAACGCGUGCUCCGAUGAAUGGAGUUUAUCAUG [U53A C72U A97G U134A],-3.33
7,GGAUCUUCUCGAUCUAACAAAAAAGACAAAUCUGCCACAAAGCUUGAGAGCAACUUCGGAUGCAGAGGCGGCAGUCUUCGGUGGCGCGAUAGCGCCAACGUUCUCAACUAUGACACGCAAAACGCGUGCUCCGUUGAAUGGAGUUUAUCAUG [U53A C75U],-1.34
8,GGAUCUUCUCGAUCUAACAAAAAAGACAAAUCUGCCACAAAGCUUGAGAGCAACUUCGGAUGCAGAGGCGGCAGUCUUCGGUGGCGCCAUAGCGCCAACGUUCUCAACUAUGACACGCAAAACGCGUGCUCCGUUGAAUGGAGUUUAUCAUG [U53A C75U G88C],≤ -4.2
9,GGAUCUUCUCGAUCUAACAAAAAAGACAAAUCUGCCACAAAGCUUGAGAGCAAAUUCGGAUGCAGAGGCGGCAGCCUUCGGUGGCGCGAUAGCGCCAACGUUCUCAAGUAUGACACGCAAAACGCGUGCUCCGUUGAAUAGAGUUUAUCAUG [U53A C54A C108G G140A],≤ -4.2
10,GGAUCUUCUCGAUCUAACAAAAAAGACAAAUCUGCCACAAAGCUUGAGAGCAACUUCGGAUGCAGAGGCGGCAGCCUUCGGUGGCGCGAUAGCGCCAACGUUCUCAACUAUGACUCGCAAAACGCGUGCUCCGUUGAAUGGAGUUUAUCAUG [U53A A115U],-2.87
11,GGAUCUUCUCGAUCUAACAAAAAAGACAAAUCUGCCACAAAGCUUGAGAGCAACUUCGGAUGCAGAGGCGGCAGCCUUCGGUGGCGCGAUAGCGCCAACGUUCUCAACUAUGACGCGCAAAACGCGUGCUCCGUUGAAUGGAGUUUAUCAUG [U53A A115G],-0.769
12,GGAUCUUCUCGAUCUAACAAAAAAGACAAAUCUGCCACAAAGCUUGAGAGCAAAUUCGGAUGCAUAGGCGGCAGCCUUCGGUGGCUCGAUUGCGCCAACGUUCUCAACUAUGACACGCAAAACGCGUGCUCCGUUGAAUGGAGUUUAUCAUG [U53A C54A G65U G86U A91U],≤ -4.2
13,GGAUCUUCUCGAUCUAACAAAAAAGACAAAUCUGCCACAAAGCUUGAGAGCAACUUCGGAUGCAGAGGCGGCAGUCUUCGGUGGUGCGAUAGCGCCAACGUUCUCAACUAUGACACGCAAAAUGAGUGCUCCGUUGAAUGGAGUUUAUCAUG [U53A C75U C85U C123U C125A],-2.32
14,GGAUCUUCUCGAUCUAACAAAAAAGACAAAUCUGCCACAAAGCUUGAGAGCAACUUCGGAUGCAGAGGCGGCAGCCUUUGGUGGCGCGGUAGCGCCAACGUUCUCAACUAUGACACGCAAAACGCGUGCUCCGGUGAAUGGAGUUUAUCAUG [U53A C79U A89G U134G],≤ -4.2
15,GGAUCUUCUCGAUCUAACAAAAAAGACAAAUCUGCCACAAAGCUUGAGAGCAAUAUCGGUUGCAGAGGCGGCAGCCGUCGGUGGUGCGAUAACGCCAACGUUCUCAACUAUAACACGCAAUACGCGUGCUCCGUUGAAUGGAGUUUAUCAUG [U53A C54U U55A A60U U77G C85U G92A G112A A121U],≤ -4.2
16,GGAUCUUCUCGAUCUAACAAAAAAGACAAAUCUGCCACAAAGCUUGAGAGCAACUUCGGAUGUAGAGGCGGCAGCCUUCGGUGGCGCGAUAGCGCCAAGGUUCUCAACUAUGACACGCAAAACGCGUGCUCCGUUGAAUGGAGUUUAUCAUG [U53A C63U C99G],-3.81
17,GGAUCUUCUCGAUCUAACAAAAAAGACAAAUCUGCCACAAAGCUUGAGAGCAACUUAGGAUGCAGAGGGGGCAGCCUUCGGUGGCGCGAUCGCGCCAACGUUCUCAACUAUGACACGCAAAACGCGUGCUCCGUUGAAUGGAGUUUAUCAUG [U53A C57A C69G A91C],≤ -4.2
18,GGAUCUUCUCGAUCUAACAAAAAAGACAAAUCUGCCACAAAGCUUGAGAGCAACUUCGGAUGCAGAGGCGGCAGCCUUCGGUGGCGCGAUAGCGCCAACGUUCUCAACUAUGACACGCAAAACGCGUGCUCCGUUGUAUGGAGUUUAUCAUG [U53A A137U],≤ -4.2
19,GGAUCUUCUCGAUCUAACAAAAAAGACAAAUCUGCCACAAAGCUUGAGAGCAAUUUAGGAUGCAGAGGCGGCAGCCUUCGGUGGCACGAUAGCGCCAACGUUCUCAACUAUGACACGCAAAACGCGUGCUCCGUUGAAUGGAGUUUAUCAUG [U53A C54U C57A G86A],-2.08

row,Variant,polymerase ribozyme fitness (log ratio)
1,GGAUCUUCUCGAUCUAACAAAAAAGACAAAUCUGCCACAAAGCUUGAGAGCAACUUUGGAUGCAGAGGCGGCAGCCUUCGGUGGCGCGAUAGCGCCAACGUUCUCAACUAUGACACGCAAAACGCGUGCUCCGUUGAAUGGACUUUAUCAUG [U53A C57U G143C],-3.52
2,GGAUCUUCUCGAUCUAACAAAAAAGACAAAUCUGCCACAAAGCUUGAGAGCAACUUCGGAUGAAGGAGCGGCAGCCUUCGGUGACGCGAUAGCGCCGACGUUCUCAACUAUGACACGCAAAACGCGUGCUCCGUUGAAUGGAGUUUAUCAUG [U53A C63A A66G G67A G84A A97G],≤ -4.2
3,GGAUCUUCUCGAUCUAACAAAAAAGACAAAUCUGCCACAAAGCUUGAGAGCAAGUUCGGAUGCAGAGGCGGCAGCCUUCGGUGGCGCGAUAGCGCCAACGUUCUCAACUAUGACACGCAAAACGCGUGCUCCGUUGAAUGGAGUUUAUCAUG [U53A C54G],-2.2
4,GGAUCUUCUCGAUCUAACAAAAAAGACAAAUCUGCCACAAAGCUUGAGAGCAAUUUCGGAUGCAGAGGCGGCAGCCUUCGGUGGCGCGAUAGCGCCAACGUUCUCAACUAUGACACGCAAAACGCGUGCUCCGUUGAAUGGAGUUUAUCAUG [U53A C54U],-0.319
5,GGAUCUUCUCGAUCUAACAAAAAAGACAAAUCUGCCACAAAGCUUGAGAGCAAAUUCGGAUGCAGAGGCGGCAGCCUUCGGUGGCGCGAUAGCGCCAACGUUCUCAACUAUGACACGCAAAACGCGUGCUCCGUUGAAUGGAGUUUCUCAUG [U53A C54A A147C],-2.75
6,GGAUCUUCUCGAUCUAACAAAAAAGACAAAUCUGCCACAAAGCUUGAGAGCAACUUGGGAUGCAGAGGCGGCAGCCUUCGGUGGCGCGAUAGCGCCAACGUUCUCAACUAUGACACGCAAAACGCGUGCUCCGUUGAAUGGAGUUUAUCAUG [U53A C57G],-2.09
7,GGAUCUUCUCGAUCUAACAAAAAAGACAAAUCUGCCACAAAGCUUGAGAGCAAAUUCAGAUGCAGAGGCGGCAGCCUUCGGUGGUGCGAUAGCGCCAACGUUCUCAACUAUGACACGCAAAACGCGUGCUCCGUUGAAUGGAGUUUAUCAUG [U53A C54A G58A C85U],-0.519
8,GGAUCUUCUCGAUCUAACAAAAAAGACAAAUCUGCCACAAAGCUUGAGAGCAAAUUCGGAUGCAGAGGCGGCAGCCUUCGGUGGCGCGAUUGCGCCAACGUUCUCAACUAUGACACGCAAAACGCGUGCUCCGUUGAAUGGAGUUUAUCAUG [U53A C54A A91U],≤ -4.2
9,GGAUCUUCUCGAUCUAACAAAAAAGACAAAUCUGCCACAAAGCUUGAGAGCAACUUCGGAUGCAGAGGUGGCAGCCUUCGGUGGCGCGGUAGCUCUAACGUUCUCAACUAUGACUCGCAAAACGCGUGCUCCGUUGAAUGGAGUUUAGCAGG [U53A C69U A89G G94U C96U A115U U148G U151G],≤ -4.2
10,GGAUCUUCUCGAUCUAACAAAAAAGACAAAUCUGCCACAAAGCUUGAGAGCAACUUCGGAUGCAGAGGCGGCAGGCUUCGGUGGCGCGAUAGCGCCAACGUUCUCAACGAUGACACGCAAAACGCGUGCUCCGUUGAACGGAGUUUAUCAUG [U53A C75G U109G U139C],≤ -4.2
11,GGAUCUUCUCGAUCUAACAAAAAAGACAAAUCUGCCACAAAGCUUGAGAGCAACUUCGGAUGCAGAGGCGGCAGCCUUCGGUGGCGCGAUAGCGCCAACGUUCUCAACUAUGACACGCAAAACGCGUGCUCCGUUGAAUGGAGUUUGUCAUG [U53A A147G],-3.69
12,GGAUCUUCUCGAUCUAACAAAAAAGACAAAUCUGCCACAAAGCUUGAGAGCAAUUUCGGAUGCAGAGGCGGCAUUCUUCGGUGGCUCGAUAGCGCCAACGUUCUCAACUAUGACACGCAAAACGCGUGCUCCGUUGAAUGAAGUUUAUCAUG [U53A C54U G74U C75U G86U G141A],≤ -4.2
13,GGAUCUUCUCGAUCUAACAAAAAAGACAAAUCUGCCACAAAGCUUGAGAGCAACUUCGGAUGCAGAGGCGGCAGCUUUCGGUAGCGCGAUAGCGCCAACGUUCUCAACUAUGACACGCAAAACGCGUGCUCCGUUGAAUGGAGUUUAUCAUG [U53A C76U G83A],-1.6
14,GGAUCUUCUCGAUCUAACAAAAAAGACAAAUCUGCCACAAAGCUUGAGAGCAACUUCGGAUGCAGAGGCGGCAGCCUUCGGUGGCGCGAUAGCGCCAACGUUCUCAACUAUGACACGCAGAACGCGUGCUCCGUUGAAUGGAGUUUAUCAUG [U53A A120G],-1.88
15,GGAUCUUCUCGAUCUAACAAAAAAGACAAAUCUGCCACAAAGCUUGAGAGCAACUUCGGAUGUAGAGGUGGCAGCCUUCGGUGGCGCGAUAGCGCCAACGUUCUCAACUAUGACACGCAAAUCGCGUGCUCCGUUGAAUGGAGUUUAUCAUG [U53A C63U C69U A122U],-3.99
16,GGAUCUUCUCGAUCUAACAAAAAAGACAAAUCUGCCACAAAGCUUGAGAGCAACUUUGGAUGCAGAGGCGGCAGCCUUCGGUGGCGCGAUAGCGCCGACGUUCUCAACUAUGACACGCAAAACGCGUGCUCCGUUGAAUGGAGUUUAUCAUG [U53A C57U A97G],-1.24
17,GGAUCUUCUCGAUCUAACAAAAAAGACAAAUCUGCCACAAAGCUUGAGAGCAACUUCGGAUGCAGAGGCGGCAGCCUUCGGUGGCGCGAUAGCGCCAACGUUCUCAACUAUGACACGCUAAACGCGUGCUCCGUUGAAUGGAGUUUAUCAUG [U53A A119U],-2.1
18,GGAUCUUCUCGAUCUAACAAAAAAGACAAAUCUGCCACAAAGCUUGAGAGCAACUUCGGAUGCAGAGGCGGCAGCCUUAGGUGGCGCGAUAGCGCCAACGUUCUCAACUAUGACACGCAAAACGCGUGCUCCGUUGAAUGGAGUUUAUCUUG [U53A C79A A150U],≤ -4.2
19,GGAUCUUCUCGAUCUAACAAAAAAGACAAAUCUGCCACAAAGCUUGAGAGCAACUUCGGAUGCAGAGGCGGCAGGUUUCGGAGGCGCGAUAGCGUCAACGUUCUCAACUAUGACACGCAAAACGCGUACUCCGUUGAAUGGAGUUUAUCAUG [U53A C75G C76U U82A C95U G128A],≤ -4.2
